Data from patent publication US9234893B2, “Marker comprising anti-CK8/18 complex autoantibody and its use for diagnosing cancer” (Korea Research Institute of Bioscience and Biotechnology, priority 2011, dated 2016).
Entries after “also recorded” stand apart in the source; their conditions may differ.

Legend:
TAB-K94 antibody = test: ELISA with selected phage as coating antigen and TAB-K94 antibody as primary antibody; assay type: binding, mouse; settings: 100 ng/100 μl TAB-K94 antibody, absorbance at 450 nm
Procedure: In order to examine the reactivity of the selected TAB-K94 antibody-specific phages against TAB-K94 antibody, ELISA was performed using the phage as a coating antigen and TAB-K94 antibody as a primary antibody. The detailed method is as follows:
[…] was diluted in 100 μl of a coating solution (0.1 M sodium bicarbonate buffer, pH 8.6) and added to each well of 96-well Maxisorp ELISA plate. For antigen coating, the phage-added plate was stored at 4° C. for 16 hours or longer. After phage coating, 300 μl of skim milk solution (5% (w/v) skim milk/TBST) was added, and reacted at room temperature for 1 hour to block the remaining sites after antigen coating. After blocking, the plate was washed with TBST (TBS containing 0.1% Tween-20) twice, and 100 ng/100 μl of TAB-K94 antibody was added thereto, and reacted at room temperature for 90 minutes. […] The secondary antibody was also reacted at room temperature for 90 minutes, and the plate was washed with TBST six times. Color development was performed using a TMB solution (Pierce) as a substrate for HRP. Absorbance was measured at 450 nm to quantify the antigen-antibody reaction.

Chang liver cells = test: Flow cytometry after intracellular staining of cell lines with TAB-K94 antibody; assay type: cell-based; settings: normal cell line
Procedure: (§1) The reactivity of autoantibodies against cancer cells was examined by flow cytometric analysis of cancer cell line after intracellular staining following the fixation and permeabilization. The method is described in detail as follows. A liver cancer cell line, HepG2 or Hepa1c1c7 at 70-80% confluency was treated with trypsin, detached from the cell culture plate, and washed with PBS. 100 μl of Cytofix/Cytoperm solution (BD) per 2×10^5 cells was added thereto, and the cells were incubated at 4° C. for 20 minutes for fixation and permeabilization. After incubation, 1 ml of Cytowash/Cytoperm solution (BD) was added and mixed well. Then the mixture was centrifuged at 1700 rpm for 5 minutes and the cell pellet was washed. 50 μl of a primary antibody solution (B cell hybridoma cell culture medium or purified primary antibody solution) was added to the washed sample, and the incubation was performed at 4° C. for 40 minutes. After incubation, the cells were washed three times, and treated with anti-mouse Igs-RPE (DaKo) at 4° C. for 40 minutes. Then, the cells were washed an additional three times, and the cell pellet was resuspended in 300 μl of PBS, followed by analysis using a FACSCaliber (BD). Mean values of fluorescence corresponding to antibody reactions were obtained and compared. 50 μl of mouse antibody free DMEM medium was added to the control group showing no antibody reaction.
(§2) The reactivity of TAB-K94 autoantibodies against various cancer cell lines was examined by flow cytometric analysis after intracellular staining of various cancer cell lines in the same manner as in Example 1 (FIG. 3A).

HT22 neuronal cells = test: as above; assay type: cell-based; settings: normal cell line
Procedure: as §1, §2

[1] = test system: breast cancer cell line MCF-7; test: as above; assay type: cell-based
Procedure: as §1, §2

[2] = test system: liver cancer cell line HepG2; test: as above; assay type: cell-based
Procedure: as §1, §2

[3] = test system: human breast cancer tissues; test: Immunohistostaining of human cancer tissues using TAB-K94 antibody; settings: in particular invasive front
Text: (§3) Based on the reactivity against cancer cells, expression of TAB-K94 antibody-reactive antigen was examined by immunohistostaining of human liver cancer tissues and breast cancer tissues using TAB-K94 antibodies.

[4] = test system: human liver cancer tissues; test: as above; settings: liver cancer tissues (data not shown)
Text: as §3

[5] = test system: breast cancer cell line MCF-7; test: Western blotting of cell lysate and serum-free cell culture medium with TAB-K94 antibody; assay type: binding; settings: MCF-7 cell lysate and cell culture medium, 50 μg protein
Procedure: Expression of TAB-K94 antibody-specific antigen proteins was examined in various cancer cell lines by Western blotting (FIG. 5A). The detailed method is as follows. The cells to be analyzed were collected and dissolved in PBS containing RIPA buffer (0.1% (w/v) SDS, 0.1% (w/v) sodium deoxycholate, 1.0% (v/v) NP40, protease inhibitor cocktail (Roche)) to be used as protein analysis samples. Protein quantification was performed by Bradford assay. Each 50 μg of the prepared protein samples was run on 10% reduced SDS-PAGE, and transferred onto a PVDF membrane. […] As a result, the TAB-K94 antibody-specific antigens were found in the liver cancer cell lines including Hep3B, PLC/PRF/5, and SK-Hep1 as a band having a molecular weight of 45 kDa.
For induction of antibodies in the individual, a specific protein should be released into the blood. That is, extracellular release of proteins expressed within the cells supports the induction of autoantibodies. Therefore, the presence of antigens was examined in the cell culture medium of cell lines expressing TAB-K94 antibody-specific antigens by Western blotting. Each 10 ml of serum-free cell culture medium was collected, and concentrated, and each 50 μg of the quantified protein was run on 10% reduced SDS-PAGE. Western blotting was performed in the same manner as above.

[6] = test system: MCF-7 or HT29 cells having the suppressed CK8 or CK18 expression; test: Flow cytometry of cells with siRNA-suppressed CK8 or CK18 expression; assay type: cell-based; settings: 72 hours after siRNA treatment
Procedure: As siRNAs for the suppression of CK8 and CK18 expression, siRNAs (CK8 Sense: 5′-CCG CAG UUA CGG UCA ACC A(dTdT)-3′ (SEQ ID NO. 23), Antisense: 5′-UGG UUG ACC GUA ACU GCG G(dTdT)-3′ (SEQ ID NO. 24), CK18 Sense: 5′-CUC ACA GAG CUG AGA CGU A(dTdT)-3′ (SEQ ID NO. 25), Antisense: 5′-UAC GUC UCA GCU CUG UGA C(dTdT)-3′ (SEQ ID NO. 26)) provided by Bioneer were used, and injected into MCF-7 or HT29 cells using Lipofectamine 2000 (Invitrogen). 72 hours after siRNA treatment, the cells were collected to extract total RNA, and 5 μg of RNA was used as a template to synthesize cDNA. The synthesized cDNA was used as a template to perform polymerase chain reaction using primers having specificity to CK8 and CK18. The resulting product was analyzed on a 1% agarose gel.
The cells showing the suppressed CK8 and CK18 expression by siRNA in RT-PCR were subjected to flow cytometry in the same manner as in Examples 1 and 3, in order to examine their TAB-K94 antibody reaction. […] However, the previous studies reported that […] form a complex to exert intracellular function. Therefore, it can be assumed that variation in the expression of one of the two proteins affects that of the other protein, and this assumption was examined by Western blotting. After treatment of siRNA for CK8 or CK18, Western blotting was performed using specific antibody to each.

CK18 [7] = target: T1, CK18 (Homo sapiens, UniProt P05783); test: Western blotting of recombinant proteins with TAB-K94 antibody; assay type: binding; settings: CK18 run alone
T1 construct: made in house; host or cells: E. coli BL21 (DE3)
T1 sequence (P05783 1-430): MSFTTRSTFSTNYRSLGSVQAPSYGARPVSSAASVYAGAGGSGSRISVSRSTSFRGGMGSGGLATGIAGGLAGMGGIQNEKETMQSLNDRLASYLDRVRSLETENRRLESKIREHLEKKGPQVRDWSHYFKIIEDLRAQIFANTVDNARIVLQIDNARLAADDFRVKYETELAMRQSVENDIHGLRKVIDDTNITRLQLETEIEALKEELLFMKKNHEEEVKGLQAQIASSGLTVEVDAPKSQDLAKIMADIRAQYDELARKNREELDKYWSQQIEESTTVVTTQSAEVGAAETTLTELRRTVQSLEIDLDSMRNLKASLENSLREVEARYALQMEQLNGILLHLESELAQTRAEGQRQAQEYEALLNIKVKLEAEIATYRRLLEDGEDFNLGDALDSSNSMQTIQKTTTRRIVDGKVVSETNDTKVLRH
Text: (§4) ID NO. 33), CK18 [NT] ID NO. 34), [NT] ID NO.

CK8 [8] = target: T2, CK8 (Homo sapiens, UniProt P05787); test: as above; assay type: binding; settings: CK8 run alone
T2 construct: made in house; host or cells: E. coli BL21 (DE3)
T2 sequence (P05787 1-483): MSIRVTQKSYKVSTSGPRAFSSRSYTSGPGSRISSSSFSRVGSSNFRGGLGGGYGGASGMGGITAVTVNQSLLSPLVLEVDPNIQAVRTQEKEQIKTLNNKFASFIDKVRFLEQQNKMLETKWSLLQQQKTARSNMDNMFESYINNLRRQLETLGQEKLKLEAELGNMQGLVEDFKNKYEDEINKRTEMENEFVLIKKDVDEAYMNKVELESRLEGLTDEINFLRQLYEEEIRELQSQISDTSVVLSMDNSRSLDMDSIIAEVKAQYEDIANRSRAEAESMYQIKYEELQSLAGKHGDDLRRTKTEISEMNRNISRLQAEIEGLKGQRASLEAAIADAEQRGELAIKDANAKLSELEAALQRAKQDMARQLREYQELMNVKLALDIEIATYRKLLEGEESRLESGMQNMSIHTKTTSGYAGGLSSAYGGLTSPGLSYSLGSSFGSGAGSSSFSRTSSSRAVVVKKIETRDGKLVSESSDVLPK
Text: as §4

[9] = target: T3, CK8/18 mixture (CK8/18 complex) (Homo sapiens, UniProt P05783+P05787); test: as above; assay type: binding; settings: mixture of CK8 and CK18
T3 construct: made in house; host or cells: E. coli BL21 (DE3)
T3 sequence (P05787 1-483): T2 sequence (P05787 1-483)
T3 sequence (P05783 1-430): T1 sequence (P05783 1-430)
Text: as §4

CK8 [10] = target: T2, CK8; test: ELISA with recombinant protein as coating antigen; assay type: binding
CK18 [11] = target: T1, CK18; test: ELISA with recombinant protein as coating antigen; assay type: binding
CK8/18 complex = target: T4, CK8/18 complex (Homo sapiens, UniProt P05783+P05787); test: ELISA with recombinant protein as coating antigen; assay type: binding; settings: mixture of the two proteins as coating antigen
T4 construct: made in house; host or cells: E. coli BL21 (DE3)
T4 sequence (P05787 1-483): T2 sequence (P05787 1-483)
T4 sequence (P05783 1-430): T1 sequence (P05783 1-430)

[12] = test system: HepG2, MCF-7 and HT29 cells; test: Intracellular localization by fluorescence staining and confocal laser microscopy; assay type: cell-based; settings: primary antibody 5 μg/ml
Procedure: In order to examine intracellular localization of the TAB-K94 antigen expression, the corresponding cells were cultured on a coverslip, and then intracellular staining was performed, followed by observation using confocal laser microscopy (Zeiss). […] The stained coverslip was treated with a mounting solution containing DAPI, and placed on a slide. […] It was confirmed that the TAB-K94 antibody-specific antigen is a CK8/18 complex, and thus the cells were stained with CK8 and CK18-specific antibodies to compare with the localization of TAB-K94 antibody reaction.

Molecule: ISPDAHS (Ile-Ser-Pro-Asp-Ala-His-Ser) [K94p1]
- reactivity against TAB-K94 antibody in ELISA (TAB-K94 antibody): high reactivity

Molecule: TLSHTRT (Thr-Leu-Ser-His-Thr-Arg-Thr) [K94p7]
- reactivity against TAB-K94 antibody in ELISA (TAB-K94 antibody): no reactivity

B1: TAB-K94 antibody: Monoclonal autoantibody against cytokeratin 8/18 complex from hybridoma KCTC 11799BP; heavy chain SEQ ID NO. 1, light chain SEQ ID NO. 2 (antibody, V domains shown)
VH: XVXLXQSGPGILQPSQTLSLTCSFSGFSLSTFGMGVGWIRQPSGKGLEWLAHIWWDDDKYYNPALKSRLTISKDTSKNQVFLKIANVDTADTATYYCARIGGYYGSSSWYFDVWGTGTTVTVSSESQSFPNVRSS
VL: DIVITQTPSSLSASLGGKVTITCKASQDINKYIAWYQHKPGKGPRLLIHYTSTLQPGIPSRFSGSGSGRDYSFSISNLEPEDIATYYCLQYDNLLTFGGGTKLEIKRADAAPTVS
modifications: not fully specified; a heavy chain variable region; a light chain variable region
- reactivity measured by flow cytometry after intracellular staining (Chang liver cells): lower reactivity
- reactivity measured by flow cytometry after intracellular staining (HT22 neuronal cells): lower reactivity
- reactivity measured by flow cytometry after intracellular staining [1]: High reactivity; also recorded: noticeably increased
- reactivity measured by flow cytometry after intracellular staining [2]: High reactivity; also recorded: noticeably increased
- staining of tissue by immunohistochemistry [3]: strong complete staining; also recorded: strong staining around cell membrane
- staining of tissue by immunohistochemistry [4]: hardly any distinct reaction; also recorded: no distinct reaction
- reactivity in Western blotting [5]: very high reactivity
- TAB-K94 antibody reaction after siRNA suppression of CK8 or CK18 [6]: reduced
- reactivity in Western blotting (CK18 [7]): no reactivity
- reactivity in Western blotting (CK8 [8]): no reactivity
- reactivity in Western blotting [9]: showed reactivity
- reactivity in ELISA (CK8 [10]): not observed
- reactivity in ELISA (CK18 [11]): not observed
- reactivity in ELISA (CK8/18 complex): the reactivity was observed
- intracellular localization of staining [12]: strongly localized in the cell membrane
